In patent US20190100600A1 (BIONOMICS, published 2019):

Tests used:
[1] = target: T1, purified recombinant LGR5 ectodomain-IgG-Fc fusion (human, UniProt O75473 22-561); experiment: ELISA of the ternary complex: R-spondin 1 preincubated with LGR5-Fc, co-receptor-Fc coated
T1 construct: also called human LGR5-Fc; hLGR5-Fc; not shown: IgG Fc
T1 sequence: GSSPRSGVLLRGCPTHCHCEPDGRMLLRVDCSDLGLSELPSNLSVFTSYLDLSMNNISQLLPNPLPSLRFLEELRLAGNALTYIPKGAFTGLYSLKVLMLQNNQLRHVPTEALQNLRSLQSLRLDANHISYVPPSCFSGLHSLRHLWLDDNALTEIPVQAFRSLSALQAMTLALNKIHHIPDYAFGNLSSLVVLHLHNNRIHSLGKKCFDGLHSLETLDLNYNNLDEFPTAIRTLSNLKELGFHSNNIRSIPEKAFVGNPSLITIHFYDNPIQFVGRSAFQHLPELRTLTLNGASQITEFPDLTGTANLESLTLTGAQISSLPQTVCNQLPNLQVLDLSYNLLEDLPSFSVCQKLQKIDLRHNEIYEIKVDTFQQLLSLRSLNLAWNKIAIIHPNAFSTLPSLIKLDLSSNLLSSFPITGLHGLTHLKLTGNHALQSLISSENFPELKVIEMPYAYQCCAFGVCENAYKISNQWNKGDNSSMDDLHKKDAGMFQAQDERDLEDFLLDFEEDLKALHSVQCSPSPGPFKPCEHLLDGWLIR

[2] = target: T1, purified recombinant LGR5 …; experiment: ELISA of the ternary complex: R-spondin 2 preincubated with LGR5-Fc, co-receptor-Fc coated
Protocol: (§1) RNF43-Fc, ZNRF3-Fc, and LRP6-Fc were coated on a 96-well high binding plate at 4 μg/mL in 1×PBS. The plate was incubated overnight at 4° C. and blocked with PBS+1% BSA. […] Triplicate wells were used for each condition was tested in triplicate. […] 1:10,000 dilution of anti-mouse IgG HRP (JIR) was used for detection. […] Data analysis was done using GraphPad Prism 6 program.

[3] = target: T1, purified recombinant LGR5 …; experiment: ELISA of the ternary complex: R-spondin 3 preincubated with LGR5-Fc, co-receptor-Fc coated
Protocol: as §1

[4] = target: T1, purified recombinant LGR5 …; experiment: ELISA of the ternary complex: R-spondin 4 preincubated with LGR5-Fc, co-receptor-Fc coated
Protocol: as §1

B1: human R-spondin 1 (ligand, UniProt Q2MKA7 21-263, looked up)
chain: SRGIKGKRQRRISAEGSQACAKGCELCSEVNGCLKCSPKLFILLERNDIRQVGVCLPSCPPGYFDARNPDMNKCIKCKIEHCEACFSHNFCTKCKEGLYLHKGRCYPACPEGSSAANGTMECSSPAQCEMSEWSPWGPCSKKQQLCGFRRGSEERTRRVLHAPVGDHAACSDTKETRRCTVRRVPCPEGQKRRKGGQGRRENANRNLARKESKEAGAGSRRRKGQQQQQQQGTVGPLTSAGPA
notes: mature; Bought; printed as 'full length constructs expressed in mammalian cells'; also called RSPO1; R-spo1
binding result [1]: binds

B2: human R-spondin 2 (ligand, UniProt Q6UXX9 22-243, looked up)
chain: QGNRWRRSKRASYVSNPICKGCLSCSKDNGCSRCQQKLFFFLRREGMRQYGECLHSCPSGYYGHRAPDMNRCARCRIENCDSCFSKDFCTKCKVGFYLHRGRCFDECPDGFAPLEETMECVEGCEVGHWSEWGTCSRNNRTCGFKWGLETRTRQIVKKPVKDTILCPTIAESRRCKMTMRHCPGGKRTPKAKEKRNKKKKRKLIERAQEQHSVFLATDRANQ
notes: mature; Bought; printed as 'full length constructs expressed in mammalian cells'; also called RSPO2; R-spo2
binding result [2]: binds

B3: human R-spondin 3 (ligand, UniProt Q9BXY4 22-272, looked up)
chain: QNASRGRRQRRMHPNVSQGCQGGCATCSDYNGCLSCKPRLFFALERIGMKQIGVCLSSCPSGYYGTRYPDINKCTKCKADCDTCFNKNFCTKCKSGFYLHLGKCLDNCPEGLEANNHTMECVSIVHCEVSEWNPWSPCTKKGKTCGFKRGTETRVREIIQHPSAKGNLCPPTNETRKCTVQRKKCQKGERGKKGRERKRKKPNKGESKEAIPDSKSLESSKEIPEQRENKQQQKKRKVQDKQKSVSVSTVH
notes: mature; Bought; printed as 'full length constructs expressed in mammalian cells'; also called RSPO3; R-spo3
binding result [3]: binds

B4: human R-spondin 4 (ligand, UniProt Q2I0M5 20-234, looked up)
chain: LNRRKKQVGTGLGGNCTGCIICSEENGCSTCQQRLFLFIRREGIRQYGKCLHDCPPGYFGIRGQEVNRCKKCGATCESCFSQDFCIRCKRQFYLYKGKCLPTCPPGTLAHQNTRECQGECELGPWGGWSPCTHNGKTCGSAWGLESRVREAGRAGHEEAATCQVLSESRKCPIQRPCPGERSPGQKKGRKDRRPRKDRKLDRRLDVRPRQPGLQP
notes: mature; Bought; printed as 'full length constructs expressed in mammalian cells'; also called RSPO4; R-spo4
binding result [4]: binds
